Biological target: T1, N-terminal effector PYRIN domain of NLRP12 (residues 1-98) (human, UniProt P59046 1-98)
T1 sequence: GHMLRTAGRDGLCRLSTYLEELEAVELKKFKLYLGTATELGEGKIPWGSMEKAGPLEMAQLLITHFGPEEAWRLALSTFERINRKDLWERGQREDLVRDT
Assay: NMR titration

B1: FAF-1 UBA domain (residues 1-57) (domain or fragment, UniProt Q9UNN5 1-57, looked up)
chain: MASNMDREMILADFQACTGIENIDEAITLLEQNNWDLVAAINGVIPQENGILQSEYG
Kd: ≥ 150 µM

B2: FAF-1 UBA domain and linker region (residues 1-99) (domain or fragment, UniProt Q9UNN5 1-99, looked up)
chain: MASNMDREMILADFQACTGIENIDEAITLLEQNNWDLVAAINGVIPQENGILQSEYGGETIPGPAFNPASHPASAPTSSSSSAFRPVMPSRQIVERQPR
Kd: ≥ 50 µM
